Laboratory results published in US20180280423A1 (NATIONAL YANG MING UNIVERSITY, published 2018).

Target: T1, epidermal growth factor receptor (EGFR) (human, UniProt P00533 25-1210)
T1 construct: whole, on cells; Endogenous EGFR in human HNSCC cells, or wild-type pHA-EGFR where transfected; also called ErbB1; total EGFR
Assay: interaction of transfected LTβ with EGFR (method not named; immunoprecipitation in Methods)
Description: For immunoprecipitation, the lysates were mixed with an equal amount of Co-IP buffer. The primary antibody or IgG was added to the lysates, and the reactions were incubated and then blocked with protein A beads overnight. The beads were collected and washed gently prior to immunoblotting. ImageJ software was used for densitometric measurements of the western blots.

B1: Ectopic LTβ (ligand)
chain: MGALGLEGRGGRLQGRGSLLLAVAGATSLVTLLLAVPITVLAVLALVPQDQGGLVTETADPGAQAQQGLGFQKLPEEEPETDLSPGLPAAHLIGAPLKGQGLGWETTKEQAFLTSGTQFSDAEGLALPQDGLYYLYCLVGYRGRAPPGGGDPQGRSVTLRSSLYRAGGAYGPGTPELLLEGAETVTPVLDPARRQGYGPLWYTSVGFGGLVQLRRGERVYVNISHPDMVDFARGKTFFGAVMVG
notes: also called pFLAG-LTB product; transfected LTβ; not shown: FLAG tag from the pFLAG-CMV2 vector
- binding result: binds
